From patent US20240350586A1 (TSINGHUA UNIVERSITY, published 2024)

Key:
[1] = molecular target: T1, CCT2 D2-P7 fusion protein (Homo sapiens (Human), UniProt P78371 217-519); assay: co-IP
T1 construct: D2 domain of CCT2 fused to the P7 peptide of CCT2; also called HA-D2-P7; not shown: HA tag of plasmid pFUGW-HA-D2-P7
T1 sequence: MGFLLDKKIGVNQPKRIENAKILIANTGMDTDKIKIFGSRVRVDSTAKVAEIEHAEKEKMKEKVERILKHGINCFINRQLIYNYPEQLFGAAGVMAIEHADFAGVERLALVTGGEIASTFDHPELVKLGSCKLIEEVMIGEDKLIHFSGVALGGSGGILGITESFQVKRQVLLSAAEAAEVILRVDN
Experimental: Co-immunoprecipitation was performed essentially as described before. In brief, 24 h after transfection, the cells were collected and lysed on ice for 30 min in co-IP buffer (50 mM Tris/HCl pH 7.4, 150 mM NaCl, 1 mM EDTA, 0.5% NP40) with protease inhibitor mixture, and the lysates were cleared by centrifugation. The resulting supernatants were incubated with indicated agarose or magnetic beads and rotated at 4° C. for 3 h. The agarose was washed five times with co-IP buffer. As for the BFP-tagged Q103, the supernatants were incubated with rabbit anti-BFP antibodies and Protein A/G PLUS-Agarose according to the manufacturers' protocol. After washing, 2×SDS loading buffer was added to the beads, and immunoblot was performed as described previously.

HA-CCT5 = molecular target: T2, HA-CCT5 (human, UniProt P48643 2-541); assay: co-IP with T7-LC3C in HEK293T
T2 construct: not shown: N-terminal HA tag
T2 sequence (P48643 2-541 limits assumed): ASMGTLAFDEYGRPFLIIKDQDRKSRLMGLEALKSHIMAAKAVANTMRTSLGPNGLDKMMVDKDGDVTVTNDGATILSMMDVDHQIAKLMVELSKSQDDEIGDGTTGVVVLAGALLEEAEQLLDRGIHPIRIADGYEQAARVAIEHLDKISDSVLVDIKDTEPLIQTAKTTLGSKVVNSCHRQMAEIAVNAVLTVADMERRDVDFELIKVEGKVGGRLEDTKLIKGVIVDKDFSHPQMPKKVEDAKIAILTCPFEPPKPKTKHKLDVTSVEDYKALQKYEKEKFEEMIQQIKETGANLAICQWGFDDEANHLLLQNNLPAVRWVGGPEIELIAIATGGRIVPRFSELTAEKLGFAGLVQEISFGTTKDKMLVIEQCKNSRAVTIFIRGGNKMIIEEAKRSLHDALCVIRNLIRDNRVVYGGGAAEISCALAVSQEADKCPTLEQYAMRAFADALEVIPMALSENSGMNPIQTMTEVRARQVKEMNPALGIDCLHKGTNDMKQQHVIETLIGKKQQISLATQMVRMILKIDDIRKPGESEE
Experimental: (§1) The data are representative of three independent experiments. [0146] […] The data are representative of three independent experiments. [0147] […] The data are representative of three independent experiments. [0148] […] The interaction of the peptides with T7-GABARAP or T7-GABARAPL1 proteins was analyzed by in vitro pull-down. The data are representative of three independent experiments. [0149] […] The data are representative of three independent experiments. [0150] […] [0151] (K) Quantification of Q103-HTT-GFP area/DAPI area (mean±SEM) as shown in [0152] (J). 48 h represents IB accumulation stage and 72 h represents clearance stage. P values are indicated (two-tailed t test, >20 views from three independent experiments). [0153] […] The data are representative of three independent experiments. [0154] […] The data are representative of three independent experiments. [0155] […] The data are representative of three independent experiments.
(§2) Co-immunoprecipitation was performed essentially as described before. In brief, 24 h after transfection, the cells were collected and lysed on ice for 30 min in co-IP buffer (50 mM Tris/HCl pH 7.4, 150 mM NaCl, 1 mM EDTA, 0.5% NP40) with protease inhibitor mixture, and the lysates were cleared by centrifugation. The resulting supernatants were incubated with indicated agarose or magnetic beads and rotated at 4° C. for 3 h. The agarose was washed five times with co-IP buffer.

HA-CCT8 = molecular target: T3, HA-CCT8 (human, UniProt P50990 2-548); assay: co-IP with T7-LC3C in HEK293T
T3 construct: not shown: N-terminal HA tag
T3 sequence (looked up): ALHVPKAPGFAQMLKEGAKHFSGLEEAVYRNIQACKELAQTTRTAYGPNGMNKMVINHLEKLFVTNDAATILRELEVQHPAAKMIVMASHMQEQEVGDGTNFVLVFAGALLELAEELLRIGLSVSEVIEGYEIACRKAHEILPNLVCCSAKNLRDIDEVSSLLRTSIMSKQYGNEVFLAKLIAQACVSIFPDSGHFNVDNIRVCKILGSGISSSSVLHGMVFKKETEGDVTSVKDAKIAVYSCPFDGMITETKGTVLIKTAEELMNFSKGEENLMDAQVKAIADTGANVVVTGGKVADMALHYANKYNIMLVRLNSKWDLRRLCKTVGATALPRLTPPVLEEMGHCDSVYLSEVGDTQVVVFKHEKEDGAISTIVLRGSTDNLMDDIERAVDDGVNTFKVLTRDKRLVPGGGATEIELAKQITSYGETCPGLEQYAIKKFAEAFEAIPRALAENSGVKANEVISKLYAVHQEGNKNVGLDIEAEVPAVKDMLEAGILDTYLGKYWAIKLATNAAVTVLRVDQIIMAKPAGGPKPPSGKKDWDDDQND
Experimental: as §1, §2

[2] = molecular target: T4, HA-CCT2 (chaperonin subunit CCT2, wild type, N-terminal HA tag) (human, UniProt P78371 2-535); assay: co-IP of HA-CCT2 with T7-LC3C in HEK293T with knockdown of P62, NBR1 and TAX1BP1
T4 construct: Expressed in HEK293T or U2OS from pFUGW-HA-CCT2; CCT genes were amplified from HEK293T cDNA; also called WT CCT2; HA-CCT2 WT; not shown: N-terminal HA tag
T4 sequence: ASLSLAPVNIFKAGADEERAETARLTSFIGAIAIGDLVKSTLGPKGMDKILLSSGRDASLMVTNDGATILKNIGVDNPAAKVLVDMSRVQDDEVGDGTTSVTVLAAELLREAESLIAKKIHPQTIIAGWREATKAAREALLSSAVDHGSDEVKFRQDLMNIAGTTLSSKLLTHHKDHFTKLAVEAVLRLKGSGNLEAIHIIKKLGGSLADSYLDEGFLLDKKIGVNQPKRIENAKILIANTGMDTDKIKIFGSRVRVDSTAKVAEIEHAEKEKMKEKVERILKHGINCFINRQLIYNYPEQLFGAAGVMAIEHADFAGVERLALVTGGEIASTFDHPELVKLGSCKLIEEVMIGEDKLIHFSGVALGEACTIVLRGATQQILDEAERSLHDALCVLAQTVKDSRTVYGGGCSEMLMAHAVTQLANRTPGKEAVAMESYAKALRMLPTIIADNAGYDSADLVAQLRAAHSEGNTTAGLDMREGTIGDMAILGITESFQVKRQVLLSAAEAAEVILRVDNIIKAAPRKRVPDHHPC
Experimental: as §1, §2

B1: T7-LC3C (expressed in cells) (other, UniProt Q9BXW4 1-126, looked up)
chain: MPPPQKIPSVRPFKQRKSLAIRQEEVAGIRAKFPNKIPVVVERYPRETFLPPLDKTKFLVPQELTMTQFLSIIRSRMVLRATEAFYLLVNNKSLVSMSATMAEIYRDYKDEDGFVYMTYASQETFG
notes: Expressed from pCDNA3-T7-LC3C; not shown: T7 tag
binding result [1]: binds
binding result (HA-CCT5): no binding
binding result (HA-CCT8): no binding
binding result [2]: binds
